In patent publication US20240035010, “COMPOSITIONS COMPRISING A VARIANT POLYPEPTIDE AND USES THEREOF” (Arbor Biotechnologies, Inc., published 2024) one finds indel editing activity data, which are given here for one molecule.

Substitutions are numbered along the chain they refer to.

Holding throughout (test): cell_activity; PAM 5'-ATTG-3'
Holding throughout (conditions): tags: pcDNA3.1 expression

The target in series [1] is T1, variant nuclease K35G combination (P14R, D32R, I61R, E311R, K35G).
T1 chain: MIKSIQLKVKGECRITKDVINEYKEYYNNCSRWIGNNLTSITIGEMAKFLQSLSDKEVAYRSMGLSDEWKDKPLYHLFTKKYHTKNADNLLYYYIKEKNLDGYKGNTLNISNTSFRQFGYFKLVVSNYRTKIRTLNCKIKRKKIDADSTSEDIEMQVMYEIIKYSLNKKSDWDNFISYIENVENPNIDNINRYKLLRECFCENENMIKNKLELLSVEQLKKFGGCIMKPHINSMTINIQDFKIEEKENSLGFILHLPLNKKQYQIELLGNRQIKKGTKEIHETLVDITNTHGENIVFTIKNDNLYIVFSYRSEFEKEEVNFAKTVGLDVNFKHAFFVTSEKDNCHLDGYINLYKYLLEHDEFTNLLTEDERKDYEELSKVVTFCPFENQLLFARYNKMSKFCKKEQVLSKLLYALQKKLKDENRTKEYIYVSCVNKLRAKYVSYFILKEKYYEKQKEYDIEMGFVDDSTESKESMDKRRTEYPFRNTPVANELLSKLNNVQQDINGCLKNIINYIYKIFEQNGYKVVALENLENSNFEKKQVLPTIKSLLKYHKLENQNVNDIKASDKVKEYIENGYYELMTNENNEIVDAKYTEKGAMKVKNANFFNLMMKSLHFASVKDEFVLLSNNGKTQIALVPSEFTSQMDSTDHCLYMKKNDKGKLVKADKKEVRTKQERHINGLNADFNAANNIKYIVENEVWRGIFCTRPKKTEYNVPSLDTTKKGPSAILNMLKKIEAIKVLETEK

Series [2] concerns the target T2, variant nuclease L38G combination (P14R, D32R, I61R, E311R, L38G).
T2 chain: T1 chain with G35K, L38G

Series [3] deals with T3, variant nuclease 7 substitutions D590G/E154G/E736G (P14R, D32R, I61R, E311R, D590G, E154G, E736G).
T3 chain: T1 chain with G35K, E154G, D590G, E736G

B1: EMX1 crRNA ; EMX1 target (ssRNA ; dsDNA)
RNA: CUUGUUGUAUAUGUCCUUUUAUAGGUAUUAAACAACCCGCCGCUUCCUGAGCCAUC
DNA 1: CCGCCGCTTCCTGAGCCATC
DNA 2: GATGGCTCAGGAAGCGGCGG
As for B1, the indel editing activity is 6.93 fold of WT in series [1], 0.16 fold of WT in series [2] and 10.7 fold of WT in series [3].
